The text below walks through data of patent publication US20180172709A1.

The target of this assay is recombinant Syrian golden hamster proteinase K-sensitive prion protein (residues 23-231) (Syrian golden hamster) (UniProt Q60468). Briefly: cell-based or functional assay.

On to “hamster proteinase K resistant prion protein (263K scrapie strain), purified from hamster brains or (from UniProt P04273 23-231)”, for which the amount of PrP^Sc seed detected, 4-hour QUIC at 65° C. came to 100 fg; the amount of PrP^Sc seed detected, 8-hour QUIC at 55° C. was 10 fg; the amount of PrP^Sc seed detected, triplicate 18-hour QUIC at 55° C. is 1 fg; the amount of PrP^Sc seed frequently positive, first 48-hour QUIC round lay within 25 to 50 ag. Moreover, the amount of PrP^Sc seed positive in one sample, second serial QUIC round was 10 ag.
